According to PMC5586252, “PP2A-B′ holoenzyme substrate recognition, regulation and role in cytokinesis” (Cell Discovery, 2017):

Molecular target: GST-tagged B′γ1 regulatory subunit (UniProt Q13362)
Assay: pull-down; 10 μg GST-tagged B′γ1 immobilised; titrated concentrations of phosphorylated or non-phosphorylated Cyk4 (1–177)

“pCyk4 (1–177), Plk1-phosphorylated (from UniProt Q9H0H5 1-177) (domain or fragment)” gave a concentration at half maximum binding of 2.5 to 5 µM and a lowest concentration at which the interaction is detected of 0.6 µM.
